Source: the RNAGym collection of RNA variant scans (doi:10.7554/elife.80360)

B1: Hairpin Ribozyme (parent)
chain: GUCCUCUUUCACGUGCGCGUGAAAGAGAGAAGUGAACCAGAGAAACACACGUUGUGGUAUAUUACCUGGUA

Variants of: B1
Experiment: self-cleavage, relative activity (ratio to wild type); higher = more cleavage; co-transcriptional

With GUCCUCUUUCACGUGCACGUGAAAGAGAGAAGUGAACCAGAGAAAUACACGUUGUGGUAUAUUACCUGGUA as the variant, how does the self-cleavage read?
Its self-cleavage is 0.143.

Which self-cleavage does the source give for GUCCUCUUUCACGUGCACGUGAAAGAGAGAAGUGAACCAGAGAAAGACACGUUGUGGUAUAUUACCUGGUA here?
The self-cleavage was 0.211.

With GUCCUCUUUCACGUGCACGUGAAAGAGAGAAGUGAACCAGAGAAACACACGUUGUGGUAGAUUACCUGGUA as the variant, how does the self-cleavage read?
Its self-cleavage is 0.581.

With GUCCUCUUUCACGUGCCCGUGAAAGAGAGAGGUGAACCAGAGAAACACACGUUGUGGUAUAUUACCUGGUA as the variant, how does the self-cleavage read?
Its self-cleavage is 0.425.

For GUCCUCUUUCACGUGCACGUGAAAGAGAGAAGUGAACCAGAGAAACACGCGUUGUGGUAUAUUACCUGGUA, which self-cleavage is on record?
Its self-cleavage is 0.62.

Which self-cleavage does the source give for GUCCUCUUUCACGUGCACGUGAAAGAGAGAAGUGAACCAGAGAAACACCCGUUGUGGUAUAUUACCUGGUA here?
The self-cleavage was 0.243.

With GUCCUCUUUCACGUGCCCGUGAAAGAGAGAAGUGAACCAGAGAAACACACGUUGUGGUAUAUUUCCUGGUA as the variant, how does the self-cleavage read?
Its self-cleavage is 0.176.

For GUCCUCUUUCACGUGCCCGUGAAAGAGAGAAGUGAACCAGAGAAACACACGUUGUGGUAUAUUGCCUGGUA, which self-cleavage is on record?
The self-cleavage was 0.592.

With GUCCUCUUUCACGUGCCCGUGAAAGAGAGAAGUGAACCAGAGAAACACAGGUUGUGGUAUAUUACCUGGUA as the variant, how does the self-cleavage read?
Its self-cleavage is 0.132.

For GUCCUCUUUCACGUGCCCGUGAAAGAGAGAAGUGAACCAGAGAAACACUCGUUGUGGUAUAUUACCUGGUA, which self-cleavage is on record?
The self-cleavage was 0.263.

Which self-cleavage does the source give for GUCCUCUUUCACGUGCCCGUGAAAGAGAGAAGUGAAACAGAGAAACACACGUUGUGGUAUAUUACCUGGUA here?
Its self-cleavage is 0.287.

With GUCCUCUUUCACGUGCACGUGAAAGAGACAAGUGAACCAGAGAAACACACGUUGUGGUAUAUUACCUGGUA as the variant, how does the self-cleavage read?
The self-cleavage was 0.169.

For GUCCUCUUUCACGUGCCCGUGAAAGAGAGAAGUGAACCAGAGAAACAUACGUUGUGGUAUAUUACCUGGUA, which self-cleavage is on record?
Its self-cleavage is 0.148.

For GUCCUCUUUCACGUGCACGUGAAAGAGAGAAGUGAACCAGAGAAACACACGUCGUGGUAUAUUACCUGGUA, which self-cleavage is on record?
The self-cleavage was 1.01.

Which self-cleavage does the source give for GUCCUCUUUCACGUGCACGUGAAAGAGAGAAGUGAACCAGAGAAACACACGUGGUGGUAUAUUACCUGGUA here?
The self-cleavage was 0.932.

With GUCCUCUUUCACGUGCACGUGAAAGAGAGAAGUGAACCAGAGAAACACACGUAGUGGUAUAUUACCUGGUA as the variant, how does the self-cleavage read?
The self-cleavage was 1.36.

For GUCCUCUUUCACGUGCACGUGAAAGAGAGAAGUGAACCAGAGAAACACACGUUGUGGUAUUUUACCUGGUA, which self-cleavage is on record?
Its self-cleavage is 0.208.

For GUCCUCUUUCACGUGCACGUGAAAGAGAGAAGUGAACCAGAGAAACACACGUUGUGGUAUCUUACCUGGUA, which self-cleavage is on record?
Its self-cleavage is 0.199.

With GUCCUCUUUCACGUGCACGUGAAAGAGAGAAGUGAACCAUAGAAACACACGUUGUGGUAUAUUACCUGGUA as the variant, how does the self-cleavage read?
Its self-cleavage is 0.203.

With GUCCUCUUUCACGUGCACAUGAAAGAGAGAAGUGAACCAGAGAAACACACGUUGUGGUAUAUUACCUGGUA as the variant, how does the self-cleavage read?
Its self-cleavage is 0.962.

For GUCCUCUUUCACGUGCACCUGAAAGAGAGAAGUGAACCAGAGAAACACACGUUGUGGUAUAUUACCUGGUA, which self-cleavage is on record?
Its self-cleavage is 0.969.

For GUCCUCUUUCACGUGCACGUGAAAGAGAGAAGUGAACCAGAGAAACACACGUUGUGGUAUAUUACCUGGUG, which self-cleavage is on record?
The self-cleavage was 1.04.

Which self-cleavage does the source give for GUCCUCUUUCACGUGCACGUGAAAGAGAGAAGUGAACCAGAGAAACACACGUUGUGGUAUAUUACCUGGUU here?
The self-cleavage was 0.868.

For GUCCUCUUUCACGUGCACGUGAAAGAGAGAAGUGAACCAGAGAAACACACGUUGUGGUAUAUUACCUGGCA, which self-cleavage is on record?
Its self-cleavage is 0.937.

Which self-cleavage does the source give for GUCCUCUUUCACGUGCACGUGAAAGAGAGAAGUGAACCAGAGAAACACACGUUGUGGUAUAUUACCUGGAA here?
The self-cleavage was 0.897.

With GUCCUCUUUCACGUGCACGUGAAAGAGAGAAGUGAACCAGAGAAACACACGUUGUGGUAUAUUACCUAGUA as the variant, how does the self-cleavage read?
Its self-cleavage is 0.301.

Which self-cleavage does the source give for GUCCUCUUUCACGUGCACGUGAAAGAGAGAAGUGAACCAGAGAAACACACGUUGUGGUAUAUUACCUCGUA here?
Its self-cleavage is 0.232.

Which self-cleavage does the source give for GUCCUCUUUCACGUGCACGUAAAAGAGAGAAGUGAACCAGAGAAACACACGUUGUGGUAUAUUACCUGGUA here?
Its self-cleavage is 0.792.

Which self-cleavage does the source give for GUCCUCUUUCACGUGCACGUGAAAGAGAGAAGUGAACCAGAGAAACCCACGUUGUGGUAUAUUACCUGGUA here?
The self-cleavage was 0.319.

For GUCCUCUUUCACGUGCACGUGAAAGAGAGAAGUGAACCAGAGAAACUCACGUUGUGGUAUAUUACCUGGUA, which self-cleavage is on record?
The self-cleavage was 0.132.

Which self-cleavage does the source give for GUCCUCUUUCACGUGCCCGUGAAAGAGAGAAGUGAACCAGCGAAACACACGUUGUGGUAUAUUACCUGGUA here?
The self-cleavage was 0.983.

For GUCCUCUUUCACGUGCACGUGAAAGAGAGAAGUGAACCAGAGAAACACACGUUGUGGUAUAUUACCUGCUA, which self-cleavage is on record?
The self-cleavage was 0.249.

With GUCCUCUUUCACGUGCCCAUGAAAGAGAGAAGUGAACCAGAGAAACACACGUUGUGGUAUAUUACCUGGUA as the variant, how does the self-cleavage read?
Its self-cleavage is 0.836.

For GUCCUCUUUCACGUGCCCGUGAAAGAGAGAAGUGAACCAGAGAAGCACACGUUGUGGUAUAUUACCUGGUA, which self-cleavage is on record?
Its self-cleavage is 0.112.

Which self-cleavage does the source give for GUCCUCUUUCACGUGCCCGUGAAAGAGAGAAGUGAACCAGAGAAACACACGUUGUGGUAUGUUACCUGGUA here?
The self-cleavage was 0.225.

Which self-cleavage does the source give for GUCCUCUUUCACGUGCCCGUGAAAGAGAGAAGUGAACCAGAGAAACACACGUUGUGGUAUCUUACCUGGUA here?
Its self-cleavage is 0.078.

With GUCCUCUUUCACGUGCACGUGAAAGAGAGAAGUGAACCAGAGAAACACACGUUGUGGUAUAUUACCGGGUA as the variant, how does the self-cleavage read?
Its self-cleavage is 0.243.

For GUCCUCUUUCACGUGCACGUGAAAGAGAGAAGUGAACCAGAGAAACACACGUUGUGGUAUAUUACCAGGUA, which self-cleavage is on record?
Its self-cleavage is 0.255.
